One data set concerns MCF7 (MCF7/ATCC) cells. Put plainly: Cell viability (cell kill) assay, nuclear counts. The format is cell-based. The text has this:
(§1) PRLR-overexpressing cells, including HEK293, PC3, MCF7 and NCI-N87, were generated to assess the ability of anti-PRLR conjugated antibodies to reduce cell viability. For comparative purposes, PC3 and T47D cells with overexpressed ErbB2 were also generated, as well as an MCF7 cell line over-expressing both hPRLR and hErbB2. Briefly, Lipofectamine® 2000-mediated transfection methodology was utilized to generate HEK293 cells expressing human PRLR (HEK293/hPRLR) or human ErbB2 (HEK293/hErbB2). Lipofectamine LTX with Plus Reagent was used to generate PC3 cells expressing human PRLR (PC3/hPRLR) or human ErbB2 (PC3/hErbB2). Lentiviral-mediated transduction was utilized to generate MCF7 cells expressing human PRLR (MCF7/hPRLR), NCI-N87 cells expressing human PRLR (NCI-N87/hPRLR), T47D cells over-expressing human ErbB2 (T47D/hErbB2), and MCF7 cells expressing both human PRLR and human ErbB2 (MCF7/hPRLR/hErbB2). All lines were selected for at least two weeks in complete growth media plus appropriate selection reagents. Stably expressing populations were enriched for PRLR expression via FACS using the anti PRLR antibody Control I.
(§2) Next, the ability of anti-PRLR-DM1 antibody-drug conjugates (i.e., anti-PRLR antibodies conjugated to DM1 via a non-cleavable linker [SMCC]) to reduce cell viability was determined using in vitro cell based assays. Cells were seeded in PDL-coated 96 well plates at 1500 to 10000 cells per well in complete growth media and allowed to grow overnight. For cell viability curves, ADCs or free DM1 (as the methyl disulfide derivative DM1-SMe) were added to the cells at final concentrations ranging from 500 nM to 5 pM and incubated for 3 days. The 293, PC3 and T47D cells were incubated with CCK8 (Dojindo, Rockville, Md.) for the final 1-3 hours and the absorbance at 450 nm (OD450) was determined on a Flexstation3 (Molecular Devices, Sunnyvale, Calif.). MCF7 cells were treated with Hoechst 33342 nuclear stain while being fixed with 4% formaldehyde. Images were acquired on the ImageXpress micro XL (Molecular Devices, Sunnyvale, Calif.) and nuclear counts were determined via Columbus image analysis software (Perkin Elmer, Shelton, Conn.). Background OD450 values (PC3, 293, and T47D) or nuclear counts (MCF7) from digitonin (40 nM) treated cells was subtracted from all wells and viability was expressed as a percentage of the untreated controls. IC50 values were determined from a four-parameter logistic equation over a 10-point response curve (GraphPad Prism).
(§3) Finally, the potency of anti-PRLR antibodies conjugated to DM1 via the non-cleavable linker SMCC was compared to the cell killing potency of anti-PRLR antibodies conjugated to MMAE via the cleavable linker: mc-vc-PAB (available from Concortis, San Diego, Calif.). Cells used in this experiment were PC3, PC3/hPRLR, MCF7/ATCC and MCF7/PRLR.
(§4) Additional toxins (DM4, MeNHC3-May, and MMD) conjugated to anti-PRLR antibodies were also tested in T47D and MCF7/hPRLR cell lines, and results are summarized in Tables 19 (293 and T47D cell killing) and 20 (MCF7/ATCC and MCF7/PRLR cell killing). (ND=not detected).

For data set [1], the system named is MCF7/hPRLR (MCF7/PRLR) cells. Put plainly: Cell viability (cell kill) assay, nuclear counts. It counts as cell-based, human.
From the text: as §1, §2, §3, §4

A further data set has as its system T47D cells. Put plainly: Cell viability (cell kill) assay. It counts as cell-based. Conditions: T47D; for IC50: read-out: IC50. As for the experimental part:
as §2
Additionally, the impact of the PRLR ligand, PRL, on PRLR-SMCC-DM1 cell kill in T47D cells was assessed. T47D cells were incubated simultaneously with PRL (15 nM) and either a non-blocking anti PRLR antibody (H1H6782P) or a receptor blocking antibody (H1H6958N2).
as §4

Another data set relates to PC3/hPRLR cells. Put plainly: Cell viability (cell kill) assay. The format is cell-based, human.
From the text: as §1, §2, §3

Data set [2] is described as follows: Conjugate characterization: protein and linker/payload concentrations, payload loading (UV, MALDI-TOF, SEC-HPLC, RP-HPLC). The format is physicochemical. The settings on record: Anti-PRLR-SMCC-DM1 conjugates; Table 9. An excerpt:
Selected anti-PRLR antibodies were conjugated to the maytansinoid DM1 through an SMCC linker using methods similar to those set forth in U.S. Pat. No. 5,208,020 and US Patent Application Publication No. 2010/0129314, the disclosures of which are incorporated by reference herein in their entireties. The conjugates were purified by size exclusion chromatography and sterile filtered. All starting materials and solvents were purchased commercially and used without purification, unless otherwise noted.
Protein and linker/payload concentrations were determined by UV spectral analysis and MALDI-TOF mass spectrometry. Size-exclusion HPLC established that all conjugates used were >95% monomeric, and RP-HPLC established that there was <0.5% unconjugated linker payload. Yields are reported in Table 8 and 9 based on protein. All conjugated antibodies were analyzed by UV for linker payload loading values according to Hamblett et al, 2004, Clinical Cancer Research 10(20):7063-7070, and by mass difference, native versus conjugated.
On the technique in general: In gel filtration, larger molecules generally elute earlier.

A further data set relates to HEK293 (293) cells. Put plainly: Cell viability (cell kill) assay. The format is cell-based. Conditions: 293.
From the text: as §1, §2

In general, IC50 refers to the concentration needed to halve the response being measured.

Where a chain is given by its changes, count along the chain named. Read-outs that look alike come from different tables or passages of the source.

B1: H1H6793P-DM1 (conjugate)
VH: EVQLVESGGGLVQPGGSLRLSCAASGFSFSIYAMSWFRQAPGKGLEWVSAINGRGDGTHYADSVKGRFTISRDNSKTTLYLQMSSLRAEDTAVYYCAKPVMSTNGFDIWGQGTMVTVSS
VL: DIQMTQSPSTLSASVGDRVTITCRASQSISSWLAWYQLKPGKAPKLLIYKASNLESGVPSRFSGSGSGTEFTLTISSLQPDDFATYYCQQYNIYWTFGQGTKVEIK
In the case of B1, the “% Kill” value is recorded as 67% in the data set on MCF7 (MCF7/ATCC) cells (MCF7, Table 12, 3 days); 87% in data set [1] (Table 12, 3 days); 53% in the data set on T47D cells (Table 12, 3 days); 65% in the data set on PC3/hPRLR cells (PC3/PRLR, Table 11, 3 days). The IC50 is 125 nM in the data set on MCF7 (MCF7/ATCC) cells (MCF7, Table 12, 3 days); 0.54 nM in data set [1] (Table 12, 3 days); 11.1 nM in the data set with T47D cells (Table 12, 3 days); 3.65 nM in the data set on PC3/hPRLR cells (PC3/PRLR, Table 11, 3 days). Besides, the “Payload:Antibody Molar Ratio (MS)” value in data set [2] is given as 3.8.

B2: H1H6953N-mc-VC-PAB-MMD (conjugate)
VH: EVQLLESGGGLVQPGGTLRLSCAASGFTFSAYAMSWVRQAPGKGLEWVSSINVRAGDTYYADSVKGRFTISRDNSKNTLFLLMNSLRAEDTAAYYCAKARYSSNWGFDFWGQGTLVTVSS
VL: DIVMTQSPDSLTVSLGARTTINCQSSQTILHSSNNHNYLAWYQQKPGLPPKLLIYWSSTRESGVPDRFSGSGSGTDFTLTISSLQAEDVAIYYCQQYSNTPYTFGQGTKLEIN
With B2, the “% Kill” value in the data set with MCF7 (MCF7/ATCC) cells (MCF7/ATCC, Table 20) is listed as 50%; in data set [1] (Table 20), 90%; with T47D cells (Table 19), 90%; in the data set on HEK293 (293) cells (Table 19) it was 70%. Also, the IC50 came out at 0.2 nM in data set [1] (Table 20) and 1 nM with T47D cells (Table 19).

B3: H1H6765P-SMCC-DM1 (conjugate)
VH: EVQLVESGGGVVRPGGSLRLSCVGSGFSFDDHGMNWVRQGPGKGLEWVSGFNWNGGSTNYAESVKGRFTISRDNARNSLFLQMNSLRAEDTALYYCVRGRSGWFNDAFDVWGPGTMVTVSS
VL: EIVLTQSPGTLSLSPGERATLSCRASQTINSNYLAWYRQKPGQTPRLLIYGTSSRATGIPDRFSGSGSGTDFSLTISRLEPEDFAVFYCQQYAGLPTFGPGTKVDIK
Regarding B3, the “% Kill” value stood at 71% in the data set with MCF7 (MCF7/ATCC) cells (MCF7/ATCC, Table 18); 70% in the data set on MCF7 (MCF7/ATCC) cells (MCF7/ATCC, Table 20); 81% in data set [1] (Table 18); 90% in data set [1] (Table 20); 90% in the data set with T47D cells (Table 19); 83% in the data set on PC3/hPRLR cells (PC3/hPRLR, Table 18). Besides, in the data set on HEK293 (293) cells (Table 19), the “% Kill” value is 100%. In addition, the IC50 with MCF7 (MCF7/ATCC) cells (MCF7/ATCC, Table 18) was 90 nM; in the data set on MCF7 (MCF7/ATCC) cells (MCF7/ATCC, Table 20), 150 nM; in data set [1] (Table 18), 0.1 nM; in data set [1] (Table 20) it was 0.3 nM; in the data set with T47D cells (Table 19), 1 nM; in the data set on PC3/hPRLR cells (PC3/hPRLR, Table 18), 0.3 nM. Also, in the data set with HEK293 (293) cells (Table 19), the IC50 is 85 nM.

B4: H1H6975P-DM1 (conjugate)
VH: EVHLVESGGGLVQPGGSLRLSCAASGFTFSSYEMNWVRQTPGKGLEWISHISSRSVIIYYADSVKGRFTISRDNAKNSLFLQMNSLRAEDTAVYFCAGITIFGIPEYWGQGTLVTVSS
VL: EIVLTQSPATLSLSPGERATLSCRASQSVSSYFAWYQQKPGQAPRLLIYDASSRATGIPTRFSGSGSGTDFTLTISSLEPEDFAVYYCQQRSSWPITFGQGTRLEIK
Regarding B4, in data set [2], the “Payload:Antibody Molar Ratio (MS)” value came out at 3.4 and the “Payload:Antibody Molar Ratio (UV)” value is 3.0.

B5: H1H6975P-mc-VC-PAB-MMD (conjugate)
VH: B4 VH
VL: B4 VL
For the molecule B5, the “% Kill” value with MCF7 (MCF7/ATCC) cells (MCF7/ATCC, Table 20) is recorded as 50%; in data set [1] (Table 20) it was 90%; with T47D cells (Table 19) it was 90%; in the data set on HEK293 (293) cells (Table 19), 80%. Also, the IC50 came to 150 nM in the data set with MCF7 (MCF7/ATCC) cells (MCF7/ATCC, Table 20); 0.2 nM in data set [1] (Table 20); 3 nM with T47D cells (Table 19).

B6: H1H6975P-SMCC-DM1 (conjugate)
VH: B4 VH
VL: B4 VL
For the molecule B6, the “% Kill” value in the data set with MCF7 (MCF7/ATCC) cells (MCF7/ATCC, Table 20) was found to be 70%; in data set [1] (Table 20), 80%; in the data set on T47D cells (Table 19) it was 100%; in the data set on HEK293 (293) cells (Table 19) it was 90%. Further, the IC50 in the data set on MCF7 (MCF7/ATCC) cells (MCF7/ATCC, Table 20) was 200 nM; in data set [1] (Table 20), 0.2 nM; in the data set with T47D cells (Table 19) it was 2 nM; with HEK293 (293) cells (Table 19), 80 nM.

B7: H1H6762P-DM1 (conjugate)
VH: QVQLVESGGGVVQPGRSLRLSCAASGFTFSHYGMVWVRQPPGKGLEWVALISFDGTTKYYADSVKGRFTISRDNSKNTLYLQMNSLRAEDTAVYFCVGAIAAAAFDLWGRGTLVTVSS
VL: EIVMTQSPATLSVSPGERATLSCRASQSVSSDLAWYQQKPGQAPRLLIYSASARATGIPARFTGSGSGTDFTLTISSLQSEDFAVYYCQQYNNWPMYTFGQGTKLEIK
As for B7, the “% Kill” value with MCF7 (MCF7/ATCC) cells (MCF7, Table 12, 3 days) is 64%; in data set [1] (Table 12, 3 days) it was 83%; in the data set with T47D cells (Table 12, 3 days), 80%; in the data set with PC3/hPRLR cells (PC3/PRLR, Table 11, 3 days), 66%. Moreover, the IC50 turned out to be 110 nM in the data set with MCF7 (MCF7/ATCC) cells (MCF7, Table 12, 3 days); 0.46 nM in data set [1] (Table 12, 3 days); 12.6 nM with T47D cells (Table 12, 3 days); 0.98 nM in the data set on PC3/hPRLR cells (PC3/PRLR, Table 11, 3 days); 100 nM in the data set on HEK293 (293) cells (Table 11, 3 days). Moreover, in data set [2], the “Payload:Antibody Molar Ratio (MS)” value is reported as 2.9.

B8: H1H6782P-mc-VC-PAB-MMD (conjugate)
VH: EVQLVESGGGLVQPGRSLRLSCAASGFTFDDYAMHWVRQAPGKGLEWVSGIIWNSGHIGYGDSVKGRFTISRDNAKKSLYLQMNSLRAEDTALYYCARDSGRYQSYFDYWGQGTLVTVSS
VL: DIQMTQSPSTLSASVGDRVTITCRASHIISSWLAWYQQKPGKAPKVLIFKASSLESGVPSRFSGSGSGTEFTLTISSLQPDDFATYYCQQYNTYSRTFGQGTKVEIK
For the molecule B8, the “% Kill” value in the data set on MCF7 (MCF7/ATCC) cells (MCF7/ATCC, Table 20) is listed as 50%; in data set [1] (Table 20), 90%; with T47D cells (Table 19), 90%; in the data set on HEK293 (293) cells (Table 19), 70%. Besides, the IC50 was 200 nM in the data set on MCF7 (MCF7/ATCC) cells (MCF7/ATCC, Table 20); 0.3 nM in data set [1] (Table 20); 2 nM in the data set on T47D cells (Table 19).

B9: H1H6782P-mc-VC-PAB-MeNHC3-May (conjugate)
VH: B8 VH
VL: B8 VL
Regarding B9, the “% Kill” value in the data set with MCF7 (MCF7/ATCC) cells (MCF7/ATCC, Table 20) stood at 50%; in data set [1] (Table 20), 80%; with T47D cells (Table 19) it was 90%; in the data set on HEK293 (293) cells (Table 19), 90%. Also, the IC50 in the data set on MCF7 (MCF7/ATCC) cells (MCF7/ATCC, Table 20) was 250 nM; in data set [1] (Table 20) it was 0.2 nM; with T47D cells (Table 19), 2 nM.

The values are drawn from patent publication US9688764B2, “Methods of treating breast cancer by administering anti-human prolactin receptor (PRLR) antibodies” (REGENERON PHARMACEUTICALS, INC., priority 2013, dated 2017).
